In IntAct's records for PubMed 21763312:

B1: Protein virB8 (Agrobacterium tumefaciens (strain C58 / ATCC 33970)), P17798 (parent)
chain: MKGSEYALLVARETLAEHYKEVEAFQTARAKSARRLSKVIAAVATIAVLGNVAQAFTIATMVPLIRLVPVYLWIRPDGTVDSEVSVSRLPATQEEAVVNASLWEYVRLRESYDADTAQYAYDLVSNFSAPMVRQNYQQFFNYPNPTSPQVILGKHGRLEVEHIASNDVTPGVQQIRYKRTLIVDGKMPMASTWTATVRYEKVTSLPGRLRLTNPGGLVVTSYQTSEDTVSNAGHSEP
partner: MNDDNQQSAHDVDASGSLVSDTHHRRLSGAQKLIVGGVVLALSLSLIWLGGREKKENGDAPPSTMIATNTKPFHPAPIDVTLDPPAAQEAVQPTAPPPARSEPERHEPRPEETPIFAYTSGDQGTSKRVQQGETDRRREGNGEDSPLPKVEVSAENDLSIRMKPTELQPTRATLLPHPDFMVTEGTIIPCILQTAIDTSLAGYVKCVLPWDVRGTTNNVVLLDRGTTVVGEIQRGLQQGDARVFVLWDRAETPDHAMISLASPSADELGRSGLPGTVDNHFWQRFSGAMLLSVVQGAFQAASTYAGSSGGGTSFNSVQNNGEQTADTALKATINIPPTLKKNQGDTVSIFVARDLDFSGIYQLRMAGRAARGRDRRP

Variants of: B1
Conditions: with virba_agrfc virB10, P17800

| Variant | effect of a mutation on the interaction |
| --- | --- |
| A55W | increasing interaction |
